{"source": "patent US20220412989A1", "about": "“COMPOSITIONS AND METHODS FOR DETECTING CELLS UNDERGOING FERROPTOSIS USING AN ANTIBODY” (THE TRUSTEES OF COLUMBIA UNIVERSITY IN THE CITY OF NEW YORK, priority 2020, published 2022)", "molecules": {"B1": {"name": "3F3-FMA: murine monoclonal IgG1 raised against ferroptotic membrane fractions; antigen is human transferrin receptor protein 1 (TfR1) (antibody, V domains shown)", "VH": "EVLLQQSGTELVRPGALVKLSCKASGFNIQDLYIHWVKQRPEQGLEWIGWIDPETDNTIYDPKFQGKASITADTSSNTAYLQLSSLTSEDTAMYYCSTGLLQWYFDVWGAGTAVTVSS", "VL": "DIVMTQSPSSLAMSIGQKVTMRCKSSQSLLNSYNQKNCLAWYQQKPGQSPKLLLYFVSTRESGVPDRFIGSGSGTDFTLTISSVQAEDLADYFCQQHYSTPLTFGAGTKLELK"}}, "key": {"[1]": {"tested_on": "HCC (Huh-7) mouse xenograft tumor tissue", "assay": "Staining of hepatocellular carcinoma mouse xenograft tumor tissue sections", "set-up": "species or system human", "details": "50 mg/kg IKE once daily IP 2 days", "procedure": "Tumor tissues were fixed in 4% paraformaldehyde (PFA) for 24 h at 4° C. followed by washing with PBS three times. The tissues were perfused in 30% sucrose for 24 h at 4° C. for cryo-protection. The samples were embedded in OCT cryostat sectioning medium, and then moved directly into a cryostat. After equilibration of temperature, frozen tumor tissues were cut into 5 μm thick sections. Tissue sections were mounted on to poly-L-lysine coated slides by placing the cold sections onto warm slides. Slides were stored at −80° C. until staining. For staining, slides were warmed to room temperature followed by washing with PBS twice. A hydrophobic barrier pen was used to draw a circle on each slide. The slides were permeabilized with PBS with 0.4% Triton X-100 (PBT) twice before non-specific-binding blocking by incubating the sections with 10% goat serum (ThermoFisher 50197Z) for 30 min at room temperature. […] All images were captured on a Zeiss LSM 800 confocal microscope at Plan-Apochromat 63x/1.40 Oil DIC objective with constant laser intensity for all analyzed samples. The intensity above threshold of the fluorescent signal of the bound antibodies was analyzed using NIH ImageJ software (ImageJ, RRID:SCR_003070). Data were expressed as fold change comparing with the vehicle. […]"}, "[2]": {"target": "T1, TfR1 in human brain tissue (Homo sapiens, UniProt P02786)", "T1 construct": "human HD and control brain tissues were fixed in 4% PFA for 24 h; from tissue; host or cells: post-mortem human brain (Huntington's disease and control)", "T1 sequence (P02786 whole entry)": "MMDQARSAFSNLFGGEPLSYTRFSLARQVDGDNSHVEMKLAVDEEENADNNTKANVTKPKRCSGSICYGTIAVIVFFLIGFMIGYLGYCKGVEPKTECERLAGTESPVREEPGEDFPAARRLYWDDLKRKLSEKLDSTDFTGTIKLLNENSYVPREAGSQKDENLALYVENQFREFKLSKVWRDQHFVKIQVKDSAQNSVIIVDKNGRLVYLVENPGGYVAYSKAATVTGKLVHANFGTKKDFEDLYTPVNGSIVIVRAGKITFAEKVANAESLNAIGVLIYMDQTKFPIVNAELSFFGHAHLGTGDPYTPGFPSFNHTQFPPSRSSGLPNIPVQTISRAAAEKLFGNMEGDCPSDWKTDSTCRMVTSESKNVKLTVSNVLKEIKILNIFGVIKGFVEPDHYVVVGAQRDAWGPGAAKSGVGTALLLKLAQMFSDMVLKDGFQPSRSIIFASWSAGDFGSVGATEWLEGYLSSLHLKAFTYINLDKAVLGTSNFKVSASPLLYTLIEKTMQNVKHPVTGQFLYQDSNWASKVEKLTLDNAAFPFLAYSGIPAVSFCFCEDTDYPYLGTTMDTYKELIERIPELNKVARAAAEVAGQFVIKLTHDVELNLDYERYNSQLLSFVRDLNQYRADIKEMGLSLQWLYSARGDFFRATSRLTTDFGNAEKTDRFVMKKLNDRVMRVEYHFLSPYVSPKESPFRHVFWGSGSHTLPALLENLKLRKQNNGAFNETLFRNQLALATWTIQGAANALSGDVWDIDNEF", "assay": "Staining of post-mortem human brain tissues", "details": "Huntington's disease and control", "procedure": "FIGS. 12A-12B show 3F3 FMA staining in human Huntington's disease brains and mouse tissues. In FIG. 12A, human HD and control brain tissues were fixed in 4% PFA for 24 h, perfused in 30% sucrose for 24 h, and stained with DAPI (nuclei, blue) and 3F3 FMA (red). The expression level of TfR1 is low. There was no difference between HD and control groups. In FIG. 12B, mouse liver tissues and mouse GBM tissues were fixed and stained with DAPI (nuclei, blue) and 3F3 FMA (red). 3F3 FMA was able to recognize mouse TfR1.\nTumor tissues were fixed in 4% paraformaldehyde (PFA) for 24 h at 4° C. followed by washing with PBS three times. The tissues were perfused in 30% sucrose for 24 h at 4° C. for cryo-protection. The samples were embedded in OCT cryostat sectioning medium, and then moved directly into a cryostat. After equilibration of temperature, frozen tumor tissues were cut into 5 μm thick sections. Tissue sections were mounted on to poly-L-lysine coated slides by placing the cold sections onto warm slides. […] All images were captured on a Zeiss LSM 800 confocal microscope at Plan-Apochromat 63x/1.40 Oil DIC objective with constant laser intensity for all analyzed samples. The intensity above threshold of the fluorescent signal of the bound antibodies was analyzed using NIH ImageJ software (ImageJ, RRID:SCR_003070). Data were expressed as fold change comparing with the vehicle."}}, "note": "Entries after “also recorded” stand apart in the source; their conditions may differ."}
{"molecule": "B1", "values": [{"measurement": "staining intensity, IKE-treated vs vehicle samples", "setting": "[1]", "result": "increased intensities; also recorded: difference in intensities"}, {"measurement": "staining signal in human brain tissue", "setting": "[2]", "result": "lack of signal"}]}
